Measurements taken from article PMC6892150, “Dimerization of MORC2 through its C-terminal coiled-coil domain enhances chromatin dynamics and promotes DNA repair” (Cell Communication and Signaling : CCS, 2019).

Biological target: the molecule itself
Experiment: cross-linking; Flag-MORC2 purified from HEK293T, chemical cross-linking, immunoblotting

B1: microrchidia family CW-type zinc finger protein 2 (MORC2), full length, Flag- or HA-tagged (natural protein, human, UniProt Q9Y6X9 1-1032, looked up)
chain: MAFTNYSSLNRAQLTFEYLHTNSTTHEFLFGALAELVDNARDADATRIDIYAERREDLRGGFMLCFLDDGAGMDPSDAASVIQFGKSAKRTPESTQIGQYGNGLKSGSMRIGKDFILFTKKEDTMTCLFLSRTFHEEEGIDEVIVPLPTWNARTREPVTDNVEKFAIETELIYKYSPFRTEEEVMTQFMKIPGDSGTLVIIFNLKLMDNGEPELDIISNPRDIQMAETSPEGTKPERRSFRAYAAVLYIDPRMRIFIHGHKVQTKRLSCCLYKPRMYKYTSSRFKTRAEQEVKKAEHVARIAEEKAREAESKARTLEVRLGGDLTRDSRVMLRQVQNRAITLRREADVKKRIKEAKQRALKEPKELNFVFGVNIEHRDLDGMFIYNCSRLIKMYEKVGPQLEGGMACGGVVGVVDVPYLVLEPTHNKQDFADAKEYRHLLRAMGEHLAQYWKDIAIAQRGIIKFWDEFGYLSANWNQPPSSELRYKRRRAMEIPTTIQCDLCLKWRTLPFQLSSVEKDYPDTWVCSMNPDPEQDRCEASEQKQKVPLGTFRKDMKTQEEKQKQLTEKIRQQQEKLEALQKTTPIRSQADLKKLPLEVTTRPSTEEPVRRPQRPRSPPLPAVIRNAPSRPPSLPTPRPASQPRKAPVISSTPKLPALAAREEASTSRLLQPPEAPRKPANTLVKTASRPAPLVQQLSPSLLPNSKSPREVPSPKVIKTPVVKKTESPIKLSPATPSRKRSVAVSDEEEVEEEAERRKERCKRGRFVVKEEKKDSNELSDSAGEEDSADLKRAQKDKGLHVEVRVNREWYTGRVTAVEVGKHVVRWKVKFDYVPTDTTPRDRWVEKGSEDVRLMKPPSPEHQSLDTQQEGGEEEVGPVAQQAIAVAEPSTSECLRIEPDTTALSTNHETIDLLVQILRNCLRYFLPPSFPISKKQLSAMNSDELISFPLKEYFKQYEVGLQNLCNSYQSRADSRAKASEESLRTSERKLRETEEKLQKLRTNIVALLQKVQEDIDINTDDELDAYIEDLITKGD
notes: MORC2, human, full length (1032 residues by the printed numbering 950-1032 for the C-terminus); Flag-MORC2 and HA-MORC2 are two differently tagged copies of the same full-length protein; each chain carries one tag only; Written as one molecule because they are co-precipitated with each other to show self-association; Flag-MORC2 was the copy purified for cross-linking; HA-MORC2 was the copy …
- stoichiometry N: 2
